Laboratory results as given in patent US20240209089A1 (SUZHOU SMARTNUCLIDE BIOPHARMACEUTICAL, published 2024).
Several values for one entry are separate records, joined by “and”; a condition that tells them apart may be missing. Equal values may be shown once.

Legend:
CD8α-Fc fusion protein [1] = target: T1, CD8α-Fc fusion protein (human); test: ELISA on coated CD8α-Fc, anti-his-HRP, four-parameter fit
T1 construct: also called CD8 α-Fc protein; CD8α-Fc tag antigen
Description: (§1) The CD8 α-Fc protein was transiently expressed by HEK293 and purified by protein A affinity chromatography. The plate was coated with the obtained CD8α-Fc protein in a concentration of 0.5 μg/well at 4° C. overnight, and then the gradient dilution series of the obtained anti-CD8α single domain antibody protein was added to react for 1 hour at room temperature. After washing, anti-his horseradish peroxidase labeled antibody was added to react for 1 hour at room temperature. After washing, a chromogenic solution was added, and an absorption value at 450 nm was read. The data processing and plotting analysis were performed by using software SotfMaxPro v5.4. […] Of the 10 selected antibodies (see Table 5 for details), the relative activities of different anti-CD8α single domain antibodies were compared by using C2-cHis as control, so as to reflect the affinity of the antibodies on CD8α. Of the 10 tested antibodies, C37, C42, C46, S5 and S36 have relatively high binding activity.

[2] = target: T2, human CD8α full-length protein (human, UniProt P01732 22-235); test: flow cytometry on MC38-CD8α cells, secondary antibody-PE
T2 construct: whole, on cells; The same entry is used for MC38-CD8α transfectants and for human CD8+ T cells from peripheral blood; the assay field says which cells; also called cell surface CD8α; MC38-CD8α cells
T2 sequence (P01732 22-235): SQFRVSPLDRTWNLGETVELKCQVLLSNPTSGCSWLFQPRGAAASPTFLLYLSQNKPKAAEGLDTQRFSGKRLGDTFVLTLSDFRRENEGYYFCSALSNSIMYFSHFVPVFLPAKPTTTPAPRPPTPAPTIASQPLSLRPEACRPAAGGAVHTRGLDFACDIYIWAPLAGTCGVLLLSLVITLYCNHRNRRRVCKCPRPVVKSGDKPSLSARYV
Description: Mouse colon cancer MC38 cell lines stable transfected with human CD8α full-length protein gene were constructed to obtain MC38 cells (MC38-CD8α cells) stably expressing human CD8α proteins on the cell membrane. Prior to use, the cells were cultured to >90% convergence. The anti-CD8α single domain antibody was used to perform flow cytometry on these cells for quantitative analysis of indirect immunofluorescence staining so as to determine the quantity of receptors on surface of each cell.
The cells were collected and suspended to a concentration of 2.5×10⁶ cells/mL. 200 μL of cell aliquot samples were mixed with 20 μL of primary antibody, and the obtained mixture was incubated for 30 min on ice. The cells were centrifuged, washed and re-suspended, then 5 μL of secondary antibody-PE conjugate was added, and then the above mixture was incubated for 30 minutes on ice. The cells were washed twice, re-suspended and underwent flow cytometry on BD FACSCelesta™. For each tube, at least 5×10⁴ events were collected. All the analyses were single colors, and PE was detected in […].

CD8α-Fc fusion protein [3] = target: T1, CD8α-Fc fusion protein; test: ELISA on coated CD8α-Fc; C2-cHis is the control (=100)
Description: as §1

CD8α-Fc fusion protein [4] = target: T1, CD8α-Fc fusion protein; test: ELISA on coated CD8α-Fc, relative to C2-cHis control
Description: as §1

[5] = target: T2, human CD8α full-length protein; test: competition radioligand binding on MC38-CD8 cells, 2 h at 4 °C; unlabeled SNA006a varied against the tracer 125I-SNA006a
Description: (§2) The 96-well cell suction filter plate was saturated with a binding buffer and dried in air before use.
(§3) After reaction for 2 hours at 4° C., the reaction solution in the suction filter plate was drained using auxiliary equipment of a vacuum pump and the suction filter plate, 200 μL of PBS buffer (0.01 M, pH=7.4) was added into each well and drained, and the cells were repeatedly washed for 6 times. After the filter membrane at the bottom of the suction filter plate was dried, the filter membrane at the bottom was collected, and a γ counter was used for measurement. Calculation and plotting were performed by using Prism 7.0 (GraphPad Software, Inc.), and the half inhibition concentration IC50 was calculated by nonlinear regression analysis. Four parallel samples were set at each experimental point, and the experiment was repeated twice. The result given in this experiment is an average value plus a standard deviation.

CD8α-cHis fusion protein = target: T3, CD8α-cHis fusion protein (UniProt P01732 22-182); test: BLI (ForteBio Octet), biotinylated antibody on SA sensor, CD8α-chis 6.25-100 nM
T3 construct: not shown: C-terminal His tag
T3 sequence (P01732 22-182): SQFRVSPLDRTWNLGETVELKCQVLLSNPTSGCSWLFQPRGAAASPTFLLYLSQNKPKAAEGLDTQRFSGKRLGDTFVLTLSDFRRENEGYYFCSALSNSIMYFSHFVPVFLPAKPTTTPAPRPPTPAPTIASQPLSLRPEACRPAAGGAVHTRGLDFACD
Description: The anti-CD8α single domain antibody-biontin was fixed on an SA biological sensor. Then, CD8α-chis with a concentration of 6.25-100 nM bound to a nano antibody and then dissociated. The binding dynamic variables of four antibodies C37, C42, C46 and S5 were evaluated and determined by using Octet Data Analysis version 9.0, including Kon, Koff and Kd.

CD8α-Fc fusion protein [6] = target: T1, CD8α-Fc fusion protein; test: ELISA on coated CD8α-Fc, antibody after exchange into NaHCO3 buffer, relative to the uncoupled antibody as standard
Description: (§4) By using PD-10 column (GE), the buffer of the CD8α-cHis single domain antibody (including C37, C46 and S5) was changed to a NaHCO3 buffer solution with a certain pH, and p-SCN-Bn-NOTA (Macrocyclics, article No. B-605) was dissolved into DMSO with a concentration of 25 mg/mL, and the p-SCN-Bn-NOTA solution whose molar was twice that of lysine on the single domain antibody was added into the CD8α single domain antibody, the above materials reacted for a certain time period at room temperature, the conjugated product was purified by PD-10 column (GE) and concentrated by ultrafiltration.
(§5) The activity of the above CD8α-NOTA after labeling was determined by ELISA. The specific method is as follows: the CD8α-Fc fusion protein was placed in the coated plate in a concentration of 5 μg/well at 4° C. overnight. After blocking with 3% BSA at 37° C., samples subjected to gradient dilution (the uncoupled CD8α single domain antibody was a standard substance) were added to act for 1 hour at 37° C. Then, anti-his-HRP (purchased from Abcam Company) was added to react for 1 hour at room temperature. Then, a chromogenic solution was added, and the absorption value at 450 nm was read.

[7] = target: T2, human CD8α full-length protein; test: competition binding on MC38-CD8 cells, displacement of ^125I-SNA006a, 4 °C, 2 h
Description: as §2, §3

CD8α-Fc fusion protein [8] = target: T1, CD8α-Fc fusion protein; test: ELISA on coated CD8α-Fc, NOTA conjugate, relative to the uncoupled antibody as standard
Description: as §4, §5

[9] = target: T2, human CD8α full-length protein; test: radioligand saturation binding on MC38-CD8 cells, 4 °C, one-site fit
Description: (§6) Receptor binding reaction: a radioligand saturation method was used, total binding and non-specific binding groups were included.
(§7) The cells were incubated for 2 h at 4° C. After that, the supernatant was extracted, the cells were washed 6 times with PBS pre-cooled at 4° C., and 200 μL of PBS was added into each well every time. Finally, the filter membrane was collected, the radioactivity count of each tube of sample and standard sample was measured on the γ counter. Finally, saturation curve fitting was performed by using Prism 7.0 (GraphPad Software, Inc.) software according to the single-point binding model, and then KD and Bmax were calculated.

[10] = target: T2, human CD8α full-length protein; test: saturation radioligand binding on MC38-CD8 cells, 2 h at 4 °C, one-site fit; panel assigned through the KD of Table 8 (3.8 nM, 125I-SNA006c)
Description: as §6, §7

T1 sequence (chain, as listed by the source): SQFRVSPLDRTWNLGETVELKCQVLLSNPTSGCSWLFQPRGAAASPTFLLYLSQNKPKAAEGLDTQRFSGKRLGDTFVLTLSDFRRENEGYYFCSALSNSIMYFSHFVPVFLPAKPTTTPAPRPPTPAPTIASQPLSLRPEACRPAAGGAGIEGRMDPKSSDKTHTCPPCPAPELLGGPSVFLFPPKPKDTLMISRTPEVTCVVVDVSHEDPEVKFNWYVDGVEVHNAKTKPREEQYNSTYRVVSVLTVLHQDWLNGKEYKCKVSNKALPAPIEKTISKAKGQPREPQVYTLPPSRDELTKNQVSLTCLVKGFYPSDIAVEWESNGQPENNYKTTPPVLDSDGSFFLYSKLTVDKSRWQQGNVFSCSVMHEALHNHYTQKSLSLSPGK

Binder	EC50 (CD8α-Fc fusion protein [1])	Positive rate (%) [2] [%]	Relative activity (%) (CD8α-Fc fusion protein [4])	Kd (CD8α-cHis fusion protein) [nM]	koff (CD8α-cHis fusion protein) [s⁻¹]	kon (CD8α-cHis fusion protein) [M⁻¹ s⁻¹]	Relative activity of CD8α-cHis-NaHCO3 (%) (CD8α-Fc fusion protein [6])	Relative activity of CD8α-cHis-NOTA (%) (CD8α-Fc fusion protein [8])	further results
C2-cHis antibody (VHH, HEK293 construct; An E. coli (PET22b) preparation is also described) VHH: QVQLVESGGGLVQPGGSLRLSCAASGFTLDYYAIGWFRQAPGKEREGISCIRIYDGNTYSAESVKGRFTISSDNAKNQVYLQINTLKPEDTAVYYCAAGSYYSCSVYPDYDMDYWGKGTLVTVSS	2.2 ng/mL and 3.18 ng/mL and 4.11 ng/mL	99.9							Relative activity (%) (CD8α-Fc fusion protein [3]): 100%
C37-cHis antibody (VHH, HEK293 construct; an E. coli preparation is also described; Biotinylated for the ForteBio assay; also called C37-his; SNA006a) VHH: QLQLVESGGGLVQAGGSLRLSCAASGLTFEDYAIGWFRQAPGKEREGISCIRIYDGNTYSAESVKGRFTISSDNAKNQVYLQINTLKPEDTAVYYCAAGSYYSCSVYPDYDMDYWGKGTLVTVSS	0.989 ng/mL	99.8	322	0.644	0.000311	483000	76		IC50 [5]: 3.02 nM; IC50 (read off the curve) [5]: ~3 nM; IC50 [7]: ~3 nM
C37-cHis-NOTA (VHH, p-SCN-Bn-NOTA coupled (lysine); sites and number not stated, also called CD8α-cHis-NOTA (C37); NOTA-CD8α single domain antibody precursor) VHH: QLQLVESGGGLVQAGGSLRLSCAASGLTFEDYAIGWFRQAPGKEREGISCIRIYDGNTYSAESVKGRFTISSDNAKNQVYLQINTLKPEDTAVYYCAAGSYYSCSVYPDYDMDYWGKGTLVTVSS								77	
^125I-SNA006c (VHH, 125I label by the chloramine T method; labelled residues not stated) VHH: QVQLVESGGGLVQAGGSLRLSCAASGVTFDDLAIGWFRQVPGKGREGVSTIGTSDGTAYYADSVKGRFTISSDNAKNTVYLQMNSLKPEDTAVYYCAVDLDYGLGSLLPMGYDYWGQGTQVTVSS									Kd [9]: 3.8 nM; Kd [10]: 3.84 nM
C46-cHis antibody (VHH, HEK293 construct; an E. coli preparation is also described; Biotinylated for the ForteBio assay; also called SNA006c; SNA006-c) VHH: QVQLVESGGGLVQAGGSLRLSCAASGVTFDDLAIGWFRQVPGKGREGVSTIGTSDGTAYYADSVKGRFTISSDNAKNTVYLQMNSLKPEDTAVYYCAVDLDYGLGSLLPMGYDYWGQGTQVTVSS	1.82 ng/mL	99.5	175	1.08	0.000271	251000	76		
S5-cHis antibody (VHH, HEK293 construct; an E. coli preparation is also described; Biotinylated for the ForteBio assay; also called SNA006d; SNA006-d) VHH: QVQLVESGGGLVQAGGSLRVSCAASGGTFSSTAMGWFRQAPGKEREFVAAISWSGGYTYYADSVRGRFTISRDNALNTVSLQMNSLKPEDTAVYYCAADISGLDTVAAGIFTEPNIDYWGKGTLVTVSS	2.28 ng/mL	99.7	180	2.87	0.000445	155000	98		
C46-cHis-NOTA (VHH, p-SCN-Bn-NOTA coupled (lysine); sites and number not stated, also called CD8α-cHis-NOTA (C46)) VHH: QVQLVESGGGLVQAGGSLRLSCAASGVTFDDLAIGWFRQVPGKGREGVSTIGTSDGTAYYADSVKGRFTISSDNAKNTVYLQMNSLKPEDTAVYYCAVDLDYGLGSLLPMGYDYWGQGTQVTVSS								20	
S5-cHis-NOTA (VHH, p-SCN-Bn-NOTA coupled (lysine); sites and number not stated, also called CD8α-cHis-NOTA (S5)) VHH: QVQLVESGGGLVQAGGSLRVSCAASGGTFSSTAMGWFRQAPGKEREFVAAISWSGGYTYYADSVRGRFTISRDNALNTVSLQMNSLKPEDTAVYYCAADISGLDTVAAGIFTEPNIDYWGKGTLVTVSS								105	
